This is an account of results in patent publication US20250084174A1 (AstraZeneca / MedImmune, published 2025).

In assay [1] the target is T1, cynomolgus CCR9 (cynomolgus, UniProt Q0H741 1-369).
T1 construct: Overexpressed on HEK cells, or endogenous on cynomolgus PBMC; also called cynomolgus CCR9A; Cyno HEK
T1 sequence: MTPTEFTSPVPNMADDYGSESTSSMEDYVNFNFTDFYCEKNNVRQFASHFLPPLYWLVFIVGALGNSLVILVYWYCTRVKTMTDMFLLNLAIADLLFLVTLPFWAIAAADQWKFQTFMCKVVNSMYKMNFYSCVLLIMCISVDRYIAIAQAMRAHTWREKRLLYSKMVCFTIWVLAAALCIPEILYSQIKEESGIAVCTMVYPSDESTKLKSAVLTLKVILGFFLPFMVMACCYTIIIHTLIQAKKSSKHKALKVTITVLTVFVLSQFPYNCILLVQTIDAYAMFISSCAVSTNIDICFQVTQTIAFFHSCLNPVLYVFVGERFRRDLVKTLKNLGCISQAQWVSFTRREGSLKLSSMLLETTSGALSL
Nature of the assay: binding to HEK cells expressing cynomolgus CCR9, fluorescence counts (FL1 Counts) against Log M.

Assay [2] addresses T2, human CCR9B (human, UniProt P51686 13-369).
T2 construct: Overexpressed on HEK cells; also called Hu B HEK; hCCR9 isoform B
T2 sequence: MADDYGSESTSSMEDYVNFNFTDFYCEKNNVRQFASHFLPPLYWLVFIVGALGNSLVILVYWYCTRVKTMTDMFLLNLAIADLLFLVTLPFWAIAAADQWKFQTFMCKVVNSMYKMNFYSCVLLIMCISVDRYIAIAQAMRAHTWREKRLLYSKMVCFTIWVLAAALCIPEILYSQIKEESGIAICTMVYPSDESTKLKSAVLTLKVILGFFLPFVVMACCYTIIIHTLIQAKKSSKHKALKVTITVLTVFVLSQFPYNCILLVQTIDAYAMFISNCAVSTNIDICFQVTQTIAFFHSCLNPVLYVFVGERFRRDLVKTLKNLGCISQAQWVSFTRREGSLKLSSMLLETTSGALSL
The experiment in a line: binding to HEK cells expressing human CCR9B, fluorescence counts (FL1 Counts) against Log M.

Assay [3] concerns the target T3, CCR5 (UniProt P51681 1-352, limits assumed).
T3 construct: whole, on cells; The cell line is not described
The experiment in a line: binding to cells expressing CCR5, fluorescence counts (FL1 Counts) against Log M.

The target of assay [4] is T4, CXCR2 (UniProt P25025 1-360, limits assumed).
T4 construct: whole, on cells; The cell line is not described
T4 sequence (looked up): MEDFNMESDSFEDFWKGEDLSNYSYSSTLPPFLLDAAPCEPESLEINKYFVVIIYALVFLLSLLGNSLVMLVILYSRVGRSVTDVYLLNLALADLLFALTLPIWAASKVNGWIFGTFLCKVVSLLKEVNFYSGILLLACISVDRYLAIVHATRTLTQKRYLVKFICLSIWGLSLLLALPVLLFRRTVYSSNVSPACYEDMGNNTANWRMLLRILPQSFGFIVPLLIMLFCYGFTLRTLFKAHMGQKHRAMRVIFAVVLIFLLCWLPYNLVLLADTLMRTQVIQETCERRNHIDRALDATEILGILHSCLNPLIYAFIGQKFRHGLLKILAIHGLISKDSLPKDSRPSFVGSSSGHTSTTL
Nature of the assay: binding to cells expressing CXCR2, fluorescence counts (FL1 Counts) against Log M.

In assay [5] the target is T5, CCR8 (UniProt P51685 1-355, limits assumed).
T5 construct: whole, on cells; The cell line is not described
The experiment in a line: binding to cells expressing CCR8, fluorescence counts (FL1 Counts) against Log M.

For assay [6], the target named is T6, CXCR1 (UniProt P25024 1-350, limits assumed).
T6 construct: whole, on cells; The cell line is not described
T6 sequence (looked up): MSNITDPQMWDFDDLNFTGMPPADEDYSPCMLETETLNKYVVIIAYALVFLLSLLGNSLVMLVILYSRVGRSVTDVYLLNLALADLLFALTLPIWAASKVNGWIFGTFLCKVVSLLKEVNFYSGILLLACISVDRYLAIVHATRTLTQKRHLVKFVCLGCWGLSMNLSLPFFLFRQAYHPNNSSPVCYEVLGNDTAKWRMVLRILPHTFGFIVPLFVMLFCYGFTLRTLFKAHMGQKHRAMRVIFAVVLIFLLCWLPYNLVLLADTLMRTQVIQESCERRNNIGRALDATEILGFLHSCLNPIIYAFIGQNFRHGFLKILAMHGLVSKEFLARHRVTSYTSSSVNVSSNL
Nature of the assay: binding to cells expressing CXCR1, fluorescence counts (FL1 Counts) against Log M.

T5 sequence (P51685 whole entry): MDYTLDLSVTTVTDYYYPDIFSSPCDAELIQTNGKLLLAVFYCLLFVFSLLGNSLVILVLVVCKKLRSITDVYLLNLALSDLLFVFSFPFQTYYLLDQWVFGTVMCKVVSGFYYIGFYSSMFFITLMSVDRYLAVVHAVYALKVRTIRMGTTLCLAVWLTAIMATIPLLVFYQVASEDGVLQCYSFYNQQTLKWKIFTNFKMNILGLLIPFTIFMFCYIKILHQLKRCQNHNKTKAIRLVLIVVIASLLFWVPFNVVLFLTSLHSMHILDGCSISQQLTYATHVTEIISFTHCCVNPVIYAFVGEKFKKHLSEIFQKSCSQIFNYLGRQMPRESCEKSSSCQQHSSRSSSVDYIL
T3 sequence (P51681 whole entry): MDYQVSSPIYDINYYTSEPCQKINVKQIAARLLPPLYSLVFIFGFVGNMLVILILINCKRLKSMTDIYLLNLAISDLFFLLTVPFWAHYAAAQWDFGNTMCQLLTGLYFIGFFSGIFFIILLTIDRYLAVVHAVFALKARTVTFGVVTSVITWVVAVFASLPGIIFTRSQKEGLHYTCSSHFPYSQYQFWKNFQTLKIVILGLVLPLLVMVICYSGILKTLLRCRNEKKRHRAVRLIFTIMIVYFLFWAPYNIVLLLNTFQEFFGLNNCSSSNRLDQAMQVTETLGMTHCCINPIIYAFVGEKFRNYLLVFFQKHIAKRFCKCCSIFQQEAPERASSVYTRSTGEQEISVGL

B1: humanised AB1020243 afuc (AB1020243-fgl) (antibody, V domains shown)
VH: QVQLVQSGAEVKKPGASVKVSCKASGYTFTSYWMHWVRQAPGQGLEWIGVIYPGNSDTRYNQKFKGRVTITRDTSASTAYMELSSLRSEDTAVYYCTRDYYSNYVYYYAMDYWGQGTTVTVSS
VL: DIVMTQTPLSLPVTPGEPASISCRSSQSLVHSNGNTYLHWYLQKPGQSPQLLIYKVSNRFSGVPDRFSGSGSGTDFTLKISRVEAEDVGVYYCSQSTHVPWTFGQGTKLEIK
modifications: afucosylated form; in the LigandTracer assay DyLight 650 Maleimide on an engineered cysteine residue in the CH2 region
notes: Human IgG1 format is stated for LigandTracer; Full chains are not tied to the tested lot
In the case of B1, in assay [1], the “EC50 (read off the curve)” value was about 400 pM. Moreover, the binding result is “binds” in assay [2]; “no binding (tested: Log M about -6.5 (about 3e-7 M))” in assay [3]; “no binding (tested: Log M about -6.5 (about 3e-7 M))” in assay [4]; “no binding (tested: Log M about -6.5 (about 3e-7 M))” in assay [5]; “no binding (tested: Log M about -6.5 (about 3e-7 M))” in assay [6].
